From US20200283482A1, “BICYCLIC PEPTIDE LIGAND PRR-A CONJUGATES AND USES THEREOF” (BicycleRD Limited, priority 2017, published 2020)
Where two headings read alike, the source gives them in different places. Starred links: 1 amine or outer side, 2 acyl side, 3 side chain; linkers in the order of their positions; H or OH if unused. Positions of bridges follow the written chain, without caps; N, C: chain ends. Non-standard residues stand in square brackets, D forms with d. Residues, ends and D or L forms follow the SMILES beside them. *: point of attachment. X11 = CCCOc1nc(NC(=O)OCc2ccc(NC(=O)[C@H](CCCNC(N)=O)NC(=O)[C@@H](NC(=O)Cn3cc(CCC(=O)*)nn3)C(C)C)cc2)c2[nH]c(=O)n(Cc3ccc(OCCN(C)C)nc3)c2n1; X3 = CCOCc1nc2c(NC(=O)OCc3ccc(NC(=O)[C@H](CCCNC(N)=O)NC(=O)[C@@H](NC(=O)Cn4cc(CCC(=O)*)nn4)C(C)C)cc3)nc3ccccc3c2n1CC(C)(C)O; X2 = CCOCc1nc2c(NC(=O)OCCSCC(=O)*)nc3ccccc3c2n1CC(C)(C)O; 1Nal = N[C@@H](Cc1cccc2ccccc12)C(=O)O; TBMB = c1c(C[*:1])cc(C[*:3])cc1C[*:2]; Tle = CC(C)(C)[C@H](N)C(=O)O; βAla = NCCC(=O)O; Sar = CNCC(=O)O

Experiments:
[1] = Plasma stability, mouse; type: in vitro ADME; settings: pH 7.4
Method: (§1) The pooled frozen mouse, rat, dog, monkey or human plasma is thawed in a water bath at 37° C. prior to experiment. Plasma is centrifuged at 4000 rpm for 5 min and the clots are removed if any. […] For positive controls, 100 μM intermediate solution is prepared by diluting 20 μL of the stock solution with 180 μL 45% MeOH/H2O. […] For compounds I-7 to […]-17, […]-22, and […]-33, at each time point (0, 1, 2, 4, 6 and 24 hr), reactions were stopped by removing the plates from water bath and 200 μL 20 mM NH4OAC mix well first and then adding 800 μL of ice-cold stop solution (200 ng/mL Labetalol, 200 ng/mL Tolbutamide, 500 ng/mL N6-Ben and 40 mM DBAA in 100% Methanol). […] Sample plates were vortexed immediately on a plate shaker at 800 rpm for 10 min and then centrifuged at 4,000 rpm for 10 min. An aliquot of supernatant (200 μL) is transferred from each well before submitting to LC-MS/MS analysis. The percentage of test compound remaining at the individual time points relative to the 0 hour sample is calculated using following equation: Percent Remaining=100×(PAR at appointed incubation time/PAR at T0 time) where PAR is the peak area ratio of analyte versus internal standard (IS).

[2] = Blood stability, mouse; type: in vitro ADME, CD-1 mouse; settings: male, CD-1, mouse
Method: CD-1 mouse blood (n≥2, male, fasted overnight) is collected from animals housed at an internal facility. (EDTA-K2 is used as anticoagulant)
The test compounds and positive control stock solutions are prepared to 10 mM in DMSO or ultrapure water. Control compounds bisacodyl, enalapril and propantheline known to be metabolised by blood are also incubated alongside each batch of test compounds I-7, I-22, I-24, I-25, I-27, and I-29 to I-33. The dosing solutions of test compounds and controls are prepared by diluting the stock solution with 45% MeOH/H2O to achieve 100 uM. Test compound solutions (final incubation concentration=2 μM) are incubated with blood (final DMSO concentration≤1%) at six different time points (0, 1, 2, 4, 6 and 24 hours) in duplicate (n=2). The reaction is terminated by adding 100 uL ultra-pure water, mixing well, then adding 800 uL of 100% methanol containing 200 ng/mL tolbutamide and 200 ng/mL labetalol as internal standards. Samples are then vortexed and centrifuged at 3200×g for 20 minutes. Following centrifugation, the concentration of test compound in the supernatant is determined semi-quantitatively by LC-MS/MS. The percentage of test compound remaining at the individual time points relative to the 0 hour sample is then reported. The percent remaining of test compound after incubation in blood is calculated using following equation: Percent Remaining=100×(PAR at appointed incubation time/PAR at T0 time) where PAR is the peak area ratio of analyte versus internal standard (IS).

[3] = Plasma stability, rat; type: in vitro ADME; settings: pH 7.4
Method: as §1

[4] = Plasma stability, dog; type: in vitro ADME; settings: pH 7.4
Method: as §1

[5] = Plasma stability, human; type: in vitro ADME; settings: pH 7.4
Method: as §1

[6] = Plasma stability, cyno; type: in vitro ADME; settings: cynomolgus monkey, pH 7.4
Method: as §1

[7] = target: T1, hemopexin domain of MT1 (Homo sapiens, UniProt P50281); test: Fluorescence polarization binding to MT1-MMP hemopexin domain; settings: read-out: apparent Kd
Method: Direct Binding Fluorescence Polarization or Anisotropy Assays are performed by titrating a constant concentration of fluorescent tracer (here, the fluoresceinated bicyclic peptide to be studied) with its binding partner (here, the MT1-MMP hemopexin domain). As the concentration of binding partner increases during the titration, the polarization signal changes in proportion to the fraction of bound and unbound material. This allows determination of […] (Kd) quantitatively. Assay data can be fit using standard ligand binding equations.
The titrant (binding partner) concentration is varied from 0.1 nM up to typically 5 μM. The range is chosen such that the maximum change in fluorescent polarization can be observed. Buffers employed are phosphate buffered saline in the presence of 0.01% Tween. Experiments were run in black 384 well low-bind/low volume plates (Corning 3820), and the fluorescent polarization signal was measured using a BMG Pherastar FS plate reader. […]
Here, a preformed complex of PEX with the fluorescent PEX-binding tracer is titrated with free, non-fluoresceinated bicyclic peptide. […] Dissociation of the complex can be measured quantitatively, and the Kd of the competitor (titrant) to the target protein determined. The advantage of the competition method is that the affinities of non-fluoresceinated bicyclic peptides can be determined accurately and rapidly. […]

[8] = Tumor localization after IV injection; type: in vivo; settings: mouse, mice bearing MT1-positive tumor xenografts, in less than 60 minutes, read-out: tumor localization level
[9] = target: T1, hemopexin domain of MT1; settings: MT1-MMP binder formed with TBMB scaffold, as described in WO 2016/067035; cited from earlier work

Compound: CCOCc1nc2c(NC(=O)OCCSCC(=O)NCCC(=O)N(C)CC(=O)N(C)CC(=O)N(C)CC(=O)N(C)CC(=O)N(C)CC(=O)N(C)CC(=O)N(C)CC(=O)N(C)CC(=O)N(C)CC(=O)N(C)CC(=O)N[C@@H](C)C(=O)N[C@H]3CSCc4cc5cc(c4)CSC[C@H](NC(=O)[C@@H](C)NC(=O)[C@H](Cc4cccc6ccccc46)NC(=O)[C@H](CCC(=O)O)NC(=O)[C@H](CC(N)=O)NC(=O)[C@@H](C)NC3=O)C(=O)N[C@@H](CCC(=O)O)C(=O)N[C@@H](CC(=O)O)C(=O)N[C@@H](Cc3ccccc3)C(=O)N[C@@H](Cc3ccc(O)cc3)C(=O)N[C@@H](CC(=O)O)C(=O)N[C@@H](C(C)(C)C)C(=O)N[C@H](C(N)=O)CSC5)nc3ccccc3c2n1CC(C)(C)O [I-7] ({X2-βAla}-[Sar][Sar][Sar][Sar][Sar][Sar][Sar][Sar][Sar][Sar]AC[dA]NE[1Nal][dA]CEDFYD[Tle]C-NH2; linker 12-18-25 via TBMB)
- half-life at 2 μM ([1]; mouse, plasma): 6 to 24 h
- half-life at 2 μM [2]: < 2 h
- half-life at 2 μM ([3]; rat, plasma): 6 to 24 h
- half-life at 2 μM ([4]; dog, plasma): > 24 h
- half-life at 2 μM ([5]; human, plasma): > 24 h
- half-life at 2 μM ([6]; plasma): > 24 h

Compound: CCCOc1nc(NC(=O)OCc2ccc(NC(=O)[C@H](CCCNC(N)=O)NC(=O)[C@@H](NC(=O)Cn3cc(CCC(=O)NCCC(=O)N(C)CC(=O)N(C)CC(=O)N(C)CC(=O)N(C)CC(=O)N(C)CC(=O)N(C)CC(=O)N(C)CC(=O)N(C)CC(=O)N(C)CC(=O)N(C)CC(=O)N[C@@H](C)C(=O)N[C@H]4CSCc5cc6cc(c5)CSC[C@H](NC(=O)[C@@H](C)NC(=O)[C@H](Cc5cccc7ccccc57)NC(=O)[C@H](CCC(=O)O)NC(=O)[C@H](CC(N)=O)NC(=O)[C@@H](C)NC4=O)C(=O)N[C@@H](CCC(=O)O)C(=O)N[C@@H](CC(=O)O)C(=O)N[C@@H](Cc4ccccc4)C(=O)N[C@@H](Cc4ccc(O)cc4)C(=O)N[C@@H](CC(=O)O)C(=O)N[C@@H](C(C)(C)C)C(=O)N[C@H](C(N)=O)CSC6)nn3)C(C)C)cc2)c2[nH]c(=O)n(Cc3ccc(OCCN(C)C)nc3)c2n1 [I-18] ({X11-βAla}-[Sar][Sar][Sar][Sar][Sar][Sar][Sar][Sar][Sar][Sar]AC[dA]NE[1Nal][dA]CEDFYD[Tle]C-NH2; linker 12-18-25 via TBMB)
- half-life at 2 μM ([1]; mouse plasma, 2 μM, 37° C., read-out: T1/2 (mouse)): < 2 h
- half-life at 2 μM ([3]; rat plasma, 2 μM, 37° C., read-out: T1/2 (rat)): < 2 h
- half-life at 2 μM ([4]; dog plasma, 2 μM, 37° C., read-out: T1/2 (dog)): < 2 h
- half-life at 2 μM ([5]; human plasma, 2 μM, 37° C., read-out: T1/2 (human)): < 2 h
- half-life at 2 μM ([6]; cyno plasma, 2 μM, 37° C., read-out: T1/2 (cyno)): < 2 h

Compound: CCOCc1nc2c(NC(=O)OCc3ccc(NC(=O)[C@H](CCCNC(N)=O)NC(=O)[C@@H](NC(=O)Cn4cc(CCC(=O)NCCC(=O)N(C)CC(=O)N(C)CC(=O)N(C)CC(=O)N(C)CC(=O)N(C)CC(=O)N(C)CC(=O)N(C)CC(=O)N(C)CC(=O)N(C)CC(=O)N(C)CC(=O)N[C@@H](C)C(=O)N[C@H]5CSCc6cc7cc(c6)CSC[C@H](NC(=O)[C@@H](C)NC(=O)[C@H](Cc6cccc8ccccc68)NC(=O)[C@H](CCC(=O)O)NC(=O)[C@H](CC(N)=O)NC(=O)[C@@H](C)NC5=O)C(=O)N[C@@H](CCC(=O)O)C(=O)N[C@@H](CC(=O)O)C(=O)N[C@@H](Cc5ccccc5)C(=O)N[C@@H](Cc5ccc(O)cc5)C(=O)N[C@@H](CC(=O)O)C(=O)N[C@@H](C(C)(C)C)C(=O)N[C@H](C(N)=O)CSC7)nn4)C(C)C)cc3)nc3ccccc3c2n1CC(C)(C)O [I-22] ({X3-βAla}-[Sar][Sar][Sar][Sar][Sar][Sar][Sar][Sar][Sar][Sar]AC[dA]NE[1Nal][dA]CEDFYD[Tle]C-NH2; linker 12-18-25 via TBMB)
- half-life at 2 μM ([1]; mouse, plasma): 2 to 6 h
- half-life at 2 μM [2]: < 2 h
- half-life at 2 μM ([3]; rat, plasma): 2 to 6 h
- half-life at 2 μM ([4]; dog, plasma): > 24 h
- half-life at 2 μM ([5]; human, plasma): > 24 h
- half-life at 2 μM ([6]; plasma): > 24 h

Compound: C[C@H](NC(=O)CN(C)C(=O)CN(C)C(=O)CN(C)C(=O)CN(C)C(=O)CN(C)C(=O)CN(C)C(=O)CN(C)C(=O)CN(C)C(=O)CN(C)C(=O)CN(C)C(=O)CCN)C(=O)N[C@H]1CSCc2cc3cc(c2)CSC[C@H](NC(=O)[C@@H](C)NC(=O)[C@H](Cc2cccc4ccccc24)NC(=O)[C@H](CCC(=O)O)NC(=O)[C@H](CC(N)=O)NC(=O)[C@@H](C)NC1=O)C(=O)N[C@@H](CCC(=O)O)C(=O)N[C@@H](CC(=O)O)C(=O)N[C@@H](Cc1ccccc1)C(=O)N[C@@H](Cc1ccc(O)cc1)C(=O)N[C@@H](CC(=O)O)C(=O)N[C@@H](C(C)(C)C)C(=O)N[C@H](C(N)=O)CSC3 [N241] (H-[βAla][Sar][Sar][Sar][Sar][Sar][Sar][Sar][Sar][Sar][Sar]AC[dA]NE[1Nal][dA]CEDFYD[Tle]C-NH2; linker 13-19-26 via TBMB)
- Kd [7]: ~2 nM

Compound: C[C@H](NC(=O)CN(C)C(=O)CN(C)C(=O)CN(C)C(=O)CN(C)C(=O)CN(C)C(=O)CN(C)C(=O)CN(C)C(=O)CN(C)C(=O)CN(C)C(=O)CN(C)C(=O)CCN)C(=O)N[C@H]1CSCc2cc3cc(c2)CSC[C@H](NC(=O)[C@@H](C)NC(=O)[C@H](Cc2cccc4ccccc24)NC(=O)[C@H](CCC(=O)O)NC(=O)[C@H](CC(N)=O)NC(=O)[C@@H](C)NC1=O)C(=O)N[C@@H](CCC(=O)O)C(=O)N[C@@H](CC(=O)O)C(=O)N[C@@H](Cc1ccccc1)C(=O)N[C@@H](Cc1ccc(O)cc1)C(=O)N[C@@H](CC(=O)O)C(=O)N[C@@H](C(C)(C)C)C(=O)N[C@H](C(N)=O)CSC3 [^177Lu-loaded N241, metal not drawn] (H-[βAla][Sar][Sar][Sar][Sar][Sar][Sar][Sar][Sar][Sar][Sar]AC[dA]NE[1Nal][dA]CEDFYD[Tle]C-NH2; linker 13-19-26 via TBMB; N-terminus and C-terminus assumed)
- tissue uptake [8]: 15 to 20 %ID/g

Compound: βAla-Sar10-A-C(D-Ala)NE(1Nal)(D-Ala)CEDFYD(tBuGLy)C [17-69-07-N241]
- Kd [9]: 1.2 nM
